According to PMC3871819, “Differentially expressed myo-inositol monophosphatase gene (CaIMP) in chickpea (Cicer arietinum L.) encodes a lithium-sensitive phosphatase enzyme with broad substrate specificity and improves seed germination and seedling growth under abiotic stresses” (Journal of Experimental Botany, 2013):

Key:
[1] = substrate: O=P(O)(O)O[C@@H]1[C@H](O)[C@H](O)[C@@H](O)[C@H](O)[C@H]1O; assay: malachite green phosphate release assay; type: biochemical, Cicer arietinum; conditions: Mg2+ (optimum 5 mM; typical assay 3 mM MgCl2), 50 mM Tris-Cl pH 8, 37 °C
Text: (§1) malachite green phosphate release assay on CaIMP

[2] = substrate: O=P(O)(O)OC1O[C@@H](CO)[C@@H](O)[C@@H](O)[C@@H]1O; assay: malachite green phosphate release assay; type: biochemical, Cicer arietinum; conditions: Mg2+ (optimum 5 mM; typical assay 3 mM MgCl2), 50 mM Tris-Cl pH 8, 37 °C
Text: as §1

B1: CaIMP (Cicer arietinum) (protein)
chain: MVDNDSHSEFLASAVEAAHKAGDVIRKAFYQTKHVQHKGTVDLVTETDKACEELIFNHLKELYPTHKFIGEETTAAFGTTELTDDPTWIVDPLDGTTNFVHGFPFVCVSIGLTIGKVPTVGVVYNPIINELFTAIRGQGAFLNGNPIKVSSQTELVSSLLATEAGTKRDKATLDASTDRINSLLYKVRSLRMSGSCALNLCGVACGRLDLFFETGFGGPWDVAGGAVIVREAGGVVFDPSGADFDITAQRVAASNPLLKDAFVDALRQTE
notes: full-length ORF (813 bp, 270 aa, ~30 kDa) in pET-23b NdeI/XhoI, E. coli BL21(DE3)
Work on B1 yielded a Km [1] of 25.9 µM, a Vmax [1] of 4.86 µmol/min/mg and a Km [2] of 16.7 µM. The Vmax [2] was 5.61 µmol/min/mg.
